Results as given in patent publication US20250369982A1 (INCENDIATHERAPEUTICS, published 2025).
Like-named read-outs stand apart in the source and are kept apart here.

Key:
[1] = target: T1, DDR1 on T47D breast cancer cells (human, UniProt Q08345 19-913); assay: cell-based or functional assay
[2] = target: T1, DDR1 on T47D breast cancer cells; assay: cell-based or functional assay; remark: listed apart in the source
[3] = target: DDR1 overexpressed on HEK293 cells (Homo sapiens (Human), UniProt Q08345 19-913); assay: cell-based or functional assay
Sequence of DDR1 overexpressed on HEK293 cells (Q08345 19-913 limits assumed): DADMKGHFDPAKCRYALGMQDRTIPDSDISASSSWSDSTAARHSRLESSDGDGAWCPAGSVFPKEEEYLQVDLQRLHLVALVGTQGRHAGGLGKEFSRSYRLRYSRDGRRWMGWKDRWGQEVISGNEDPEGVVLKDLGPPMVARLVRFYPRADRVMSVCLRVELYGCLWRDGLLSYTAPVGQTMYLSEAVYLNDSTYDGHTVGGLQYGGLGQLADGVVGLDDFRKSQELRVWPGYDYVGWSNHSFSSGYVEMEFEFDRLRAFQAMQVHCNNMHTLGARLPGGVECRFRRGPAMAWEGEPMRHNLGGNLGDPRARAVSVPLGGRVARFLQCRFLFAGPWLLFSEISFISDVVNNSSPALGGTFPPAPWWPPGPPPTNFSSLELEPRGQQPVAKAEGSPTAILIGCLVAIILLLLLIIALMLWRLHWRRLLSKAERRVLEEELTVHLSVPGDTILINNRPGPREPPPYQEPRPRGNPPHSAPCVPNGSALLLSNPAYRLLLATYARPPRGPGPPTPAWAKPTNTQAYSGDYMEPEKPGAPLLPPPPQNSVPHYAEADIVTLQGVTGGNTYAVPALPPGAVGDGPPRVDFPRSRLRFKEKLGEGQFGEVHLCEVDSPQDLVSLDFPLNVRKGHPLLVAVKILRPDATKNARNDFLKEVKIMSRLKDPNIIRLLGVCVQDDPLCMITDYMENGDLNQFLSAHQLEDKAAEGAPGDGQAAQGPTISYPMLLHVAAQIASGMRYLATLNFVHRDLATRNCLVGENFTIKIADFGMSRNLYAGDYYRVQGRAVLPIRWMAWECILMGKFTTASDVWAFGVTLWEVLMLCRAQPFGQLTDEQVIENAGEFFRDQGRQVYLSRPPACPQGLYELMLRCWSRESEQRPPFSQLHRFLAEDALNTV

[4] = target: T2, mouse DDR1 extracellular domain (mouse, UniProt Q03146 22-415); assay: SPR
T2 construct: extracellular domain
T2 sequence (looked up): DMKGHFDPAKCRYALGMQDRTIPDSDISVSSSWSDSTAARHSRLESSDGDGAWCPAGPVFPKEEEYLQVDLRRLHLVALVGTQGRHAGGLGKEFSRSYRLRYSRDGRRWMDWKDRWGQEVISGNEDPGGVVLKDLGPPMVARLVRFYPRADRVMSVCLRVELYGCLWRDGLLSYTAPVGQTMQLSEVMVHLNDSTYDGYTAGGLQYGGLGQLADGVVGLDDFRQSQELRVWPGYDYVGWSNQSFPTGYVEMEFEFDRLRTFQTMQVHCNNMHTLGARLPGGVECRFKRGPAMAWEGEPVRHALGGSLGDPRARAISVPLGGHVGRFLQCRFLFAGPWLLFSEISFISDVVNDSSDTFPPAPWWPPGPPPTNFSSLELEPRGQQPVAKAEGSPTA

[5] = target: T1, DDR1 on T47D breast cancer cells; assay: cell-based or functional assay; remark: listed apart in the source

T1 sequence (Q08345 19-913 limits assumed, stated change not applied): as the sequence (Q08345 19-913 limits assumed) above

B1: mAb #9H1 WT IgG1 Fc (antibody)
heavy: not shown
light: DIQMTQSPSSVSASVGDRVTITCQASQSIGSVLAWYQQKPGKAPKLLISGVFDLASGVPSRFSGSGSGTDFTLTISSLQPEDFATYYCQYIPYGSSPFGGGTKVEIKRTVAAPSVFIFPPSDEQLKSGTASVVCLLNNFYPREAKVQWKVDNALQSGNSQESVTEQDSKDSTYSLSSTLTLSKADYEKHKVYACEVTHQGLSSPVTKSFNRGEC
notes: also called humanized mAb #9H1 with wt IgG1Fc
IC50, inhibition of human collagen I (50 µg/ml)-induced DDR1 phosphorylation in T47D cells (pDDR1 normalised with vinculin), single experiment; unit taken from the axis [9H1] (µg/ml) [1]: 0.09 µg/ml | IC50 for inhibiting Collagen I-induced phosphorylation of DDR1 in T47D cells [2]: 0.05 to 0.06 µg/mL | IC50 for 9H1-WT inhibition of DDR1 OE cell adhesion to collagen I-coated plates [3]: ~0.065 µg/mL | Kd [4]: 17.6 nM | IC50, inhibition of human collagen I (50 µg/ml)-induced DDR1 phosphorylation in T47D cells (pDDR1 normalised with vinculin), single experiment; unit taken from the axis [9H1] (µg/ml) [5]: 0.05 µg/ml

B2: mAb #9H1 inert IgG1 Fc (antibody)
heavy: QVQLVESGGRVVQPGRSLRLSCTASGFSLNRYYMLWVRQAPGKGLEWIGTISYGDTTYYASWAKGRFTISRDNSKNTLYLQMNSLRAEDTAVYYCARADTGDNGYLGLQLWGQGTLVTVSSASTKGPSVFPLAPSSKSTSGGTAALGCLVKDYFPEPVTVSWNSGALTSGVHTFPAVLQSSGLYSLSSVVTVPSSSLGTQTYICNVNHKPSNTKVDKRVEPKSCDKTHTCPPCPAPEAEGAPSVFLFPPKPKDTLMISRTPEVTCVVVDVSHEDPEVKFNWYVDGVEVHNAKTKPREEQYNSTYRVVSVLTVLHQDWLNGKEYKCKVSNKALPSSIEKTISKAKGQPREPQVYTLPPSREEMTKNQVSLTCLVKGFYPSDIAVEWESNGQPENNYKTTPPVLDSDGSFFLYSKLTVDKSRWQQGNVFSCSVMHEALHNHYTQKSLSLSPGK
light: DIQMTQSPSSVSASVGDRVTITCQASQSIGSVLAWYQQKPGKAPKLLISGVFDLASGVPSRFSGSGSGTDFTLTISSLQPEDFATYYCQYIPYGSSPFGGGTKVEIKRTVAAPSVFIFPPSDEQLKSGTASVVCLLNNFYPREAKVQWKVDNALQSGNSQESVTEQDSKDSTYSLSSTLTLSKADYEKHKVYACEVTHQGLSSPVTKSFNRGEC
notes: No sentence equates the two names; also called humanized mAb #9H1 with inert IgG1Fc; humanized DDR1-9 1 inert IgG1 Fc
Kd [4]: 19 nM

B3: mAb #33 inert IgG1 Fc (antibody, V domains shown)
VH: QSVEESGGRLVTPGGSLTLTCTVSGFSLSSYDMSWVRQAPGKGLEWIGISWNSGFVDYASWAKGRFSISKTSTTVDLKITSPTTEDTATYFCARLGADDIYYFNLWGPGTLVTISS
VL: ELVMTQTPASVEAAVGGTVTIKCQASETISSRLAWYQQKPGQPPKLLIYQASKLPSGVPSRFKGTGSGTEYTLTISDLECADAATYYCQGCYYGGGSFYDSAFGGGTEVVVKR
notes: also called chimeric rabbit/human mAb #33 with inert IgG1 Fc; chimeric mAb #33
Kd [4]: 1.01 nM | koff [4]: 0.00106 s⁻¹ | kon [4]: 1.05e+06 M⁻¹ s⁻¹
